This data set is described as follows: yeast display, Sf9 membrane polyspecificity reagent, FACS + sequencing; frameworks hold sequencing errors. In short, it runs like this: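 Genes from sorted yeast were amplified by colony PCR, read by MiSeq 2 × 250 sequencing and filtered on CDR length. These cells carried a synthetic nanobody library in Saccharomyces cerevisiae BJ5465 and were sorted by FACS into low and high (top ~1%) gates on anti-HA and streptavidin fluorescence. Polyreactivity is labelled according to the gate of origin.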
For the sequence “QVQLVESGGGLVQAGGSLRLSCAASGSTFYKYAMGWYRQAPGKERELVASISRSGGSTSYADSVKGRFTISRDNAKNTVYLQMNSLKPEDTAVYYCAADRYSSPYYSSPNEYDYWGQGTQVTVSS”, the “polyreactivity (PSR sort gate)” value is given as “high polyreactivity”.
“QVQLVESGGGLVQAGGSLRLSCAASGSTFYKYAMGWYRQAPGKERELVASISRSGGSTSYADSVKGRFTITRDNAKNTVYLQMNSLKPEDTAVYYCAATWRQHPGSMGYWGQGTQVTVSS”: the “polyreactivity (PSR sort gate)” value is on record as “high polyreactivity”.
Then “QVQLVESGGGLVQAGGSLRLSCAASGSTFYLNAMGWYRPAPGKERELVAAISSGGRTYYADSVKGRFTISRDNAKNTVYLQMISLKPEDTGVYYCNAVRYLRGAYNYWGQGTQVTVSS”, with “high polyreactivity”; and “QVQLVESGGGLVQAGGSLRLSCAASGSTFYLYAMGLYRQAPGKERELVAAISSGGRTNYADSVKGRFTISRDNAKNTVYLQMNSLKPEDTAVYYCAARIQWPTWSLYYYWGQGTQVTVSS”, with “high polyreactivity”; and “QVQLVESGGGLVQAGGSLRLSCAASGSTFYLYAMGWYRQAPGKEREFVAAISWSGGRTYYAHSVKGRFTISRDYAKNTVYLQMNSLKPEDTAVYYCAARRRYTWQYTSYDMGYWGQGTQVTVSS”, with “low polyreactivity”.
Then “QVQLVESGGGLVQAGGSLRLSCAASGSTFYLYTMGWYRQAPGKERELVAASSINGGITYYADSVKGRFTISRDNAKNTVYFQMYSLKPEDTAVYYCAKSSGQTDVGSFYYRLDYWGQGTQVTVSS”, with “low polyreactivity”.
The value for “QVQLVESGGGLVQAGGSLRLSCAASGSTFYNNAMGWYRQAPGKERELVAAISSGGGTYYADSVKGRFTISRDNAKNTVYLQMNSLKPEDTAVYYCAADFANTTHWGRIKRYDYWGQGTQVTVSS” was “low polyreactivity”; that for “QVQLVESGGGLVQAGGSLRLSCAASGSTFYNNAMGWYRQAPGKERELVAAITSSVGSTHYADSVKGRFTISRDNAKNTVYLQMNSLKPEDSAVYYCNARGRLYGHLYDYWGQGTQVTVSS” was “low polyreactivity”.
Consider “QVQLVESGGGLVQAGGSLRLSCAASGSTFYNYVMGWYRQAPGKERELVAAISSSGGNTYYADSVKGRFTISRDNAKNTVYLQMNSLKPEDTAVYYCAARERHPSGGKYDYWGQGTQVTVSS”, for which the “polyreactivity (PSR sort gate)” value is on record as “high polyreactivity”.
Then “QVQLVESGGGLVQAGGSLRLSCAASGSTFYPNAMGWYRQAPGKERELVAAIDRGGSTSYADSVKGRFTISRDNAKNTVYLQMNSLKPEDTAVYYCAVARGGRRKYEYWGQGTQVTVSS”, with “low polyreactivity”; and “QVQLVESGGGLVQAGGSLRLSCAASGSTFYPNAMGWYRQAPGKERELVAAIRTRGGSTYYADSVKGRFTISRDNAKNTVYLQMNSLKPEDTAVYYCAAEKRYRKAFDYWGQGTQVTVSS”, with “low polyreactivity”; and “QVQLVESGGGLVQAGGSLRLSCAASGSTFYPNAMGWYRQAPGKERELVAAISRSGGSTYYADSVKGRFTISRDNAKNTVYLQMNSLKPEDTAVYYCAADGRSPARYDYWGQGTQVTVSS”, with “low polyreactivity”.
The value for “QVQLVESGGGLVQAGGSLRLSCAASGSTFYPNSMGWYRQAPGKERELVDAISWSGGYTYYADSVKGRFTISRDNAKNTVFLQMNSLNPEDTAVYYCAAREFLYSWYTHLKYDYWGQGTQVTVSS” was “low polyreactivity”.
The value for “QVQLVESGGGLVQAGGSLRLSCAASGSTFYPYALGWYRQAHGKVRELVATISFSGGRTYYADSVKGRFTISRDNAKNTVYLQMHSLKPEDTAVYYCAAVSYWHDGHRGNYWGQGTQVTVSS” was “low polyreactivity”.
On to “QVQLVESGGGLVQAGGSLRLSCAASGSTFYPYAMGWYRPAPGKERELVAGITSSGGSTYYADSVKGRFTISRDNAKNTVYLQMISLKPEDTAVYYCNAYIDALPVSYQYDYWGQGTQVTVSS”, for which the “polyreactivity (PSR sort gate)” value is “low polyreactivity”.
Then “QVQLVESGGGLVQAGGSLRLSCAASGSTFYPYAMGWYRQAPGKERELVAAINWSGGTTYYADSVKGRFTISRDNAKNTVYLQLNSLKPEDTAVYYCAADGYPPGYGYWGQGTQVTVSS”, with “low polyreactivity”.

Values taken from the nanobody polyreactivity screen of Harvey et al. (2022).
